Experimental data as given in patent US20090088386A1 (KAGOSHIMA UNIVERSITY, published 2009).
Where a chain is given by its changes, count along the chain named. No end group written: not given here.

Columns and labels:
[1] = target: T1, pepB7-C15 (pepD1-C5, C7, C20) peptide phage clone; test: biopanning on coated B7 scFv; no ELISA figure is given for B7
T1 construct: also called pepD1-C7; pepD1-C20; not shown: phage gene III protein of the Ph.D.-C7C library phage (New England Biolabs)
T1 peptide: CYGTKPWMC

[2] = target: T2, pepB6-L10 peptide phage clone (not fully specified (C-terminus)); test: phage ELISA, scFv coated on plate, phage detected with anti-M13 antibody
T2 construct: not shown: phage gene III protein of the Ph.D.-12 library phage (New England Biolabs)
T2 peptide: TSPILDVLTPPR

[3] = target: T3, pepB6-L1 peptide phage clone (not fully specified (C-terminus)); test: as above
T3 construct: not shown: phage gene III protein of the Ph.D.-12 library phage (New England Biolabs)
T3 peptide: GMLDIFAPIRHV

[4] = target: T1, pepB7-C15 (pepD1-C5, C7, C20) peptide …; test: as above
Description: An ELISA plate was coated with scFv used as a template in the panning or with control scFv in an amount of 50 ng/40 μl/well (0.1 M NaHCO₃, pH 8.6) at 4° C. for 6 hours. Each well was blocked with 0.5% gelatin at 4° C. for 13 hours. Each well was washed with 0.2% PBST three times and then reacted at room temperature for 1 hour by the addition of the isolated peptide phage clone solution (approximately 1.6×10¹¹ virions/40 μl). After reaction with 40 μl of biotinylated anti-M13 monoclonal antibodies (diluted 1000 folds) and a streptavidin-alkaline phosphatase conjugate (diluted 1000 folds), bound phages were detected using substrate p-nitrophenyl phosphate.
The experiment was conducted according to the procedures described in the paragraph (5) ELISA. […] The experiment was conducted according to the procedures described in the paragraph (5) ELISA. […] The experiment was conducted according to the procedures described in the paragraph (5) ELISA.

[5] = target: T4, pepD1-C8 peptide phage clone; test: as above
T4 construct: not shown: phage gene III protein of the Ph.D.-C7C library phage (New England Biolabs)
T4 peptide: CFGRLPWMC

[6] = target: T5, pepD1-C10 peptide phage clone; test: as above
T5 construct: not shown: phage gene III protein of the Ph.D.-C7C library phage (New England Biolabs)
T5 peptide: CFGSLPWMC

[7] = target: T6, pepD1-L7 peptide phage clone; test: as above
T6 construct: not shown: phage gene III protein of the Ph.D.-12 library phage (New England Biolabs)
T6 peptide: SILDILSPRLAE

[8] = target: T7, pepD1-C3 peptide phage clone; test: as above
T7 construct: not shown: phage gene III protein of the Ph.D.-C7C library phage (New England Biolabs)
T7 peptide: CQGHLPWMC

[9] = target: T8, pepD1-C11 peptide phage clone; test: as above
T8 construct: not shown: phage gene III protein of the Ph.D.-C7C library phage (New England Biolabs)
T8 peptide: CFGHKPWMC

[10] = target: T9, pepD1-L5, L9 peptide phage clone; test: as above
T9 construct: also called pepD1-L9; not shown: phage gene III protein of the Ph.D.-12 library phage (New England Biolabs)
T9 peptide: GSPFLDLLAPAA

[11] = target: T10, pepD1-C18 peptide phage clone; test: as above
T10 construct: not shown: phage gene III protein of the Ph.D.-C7C library phage (New England Biolabs)
T10 peptide: CFGHEPWMC

[12] = target: T11, pepD1-C2, C13 peptide phage clone; test: as above
T11 construct: also called pepD1-C13; not shown: phage gene III protein of the Ph.D.-C7C library phage (New England Biolabs)
T11 peptide: CYGTEPWMC

[13] = target: T12, pepD1-L20 peptide phage clone; test: as above
T12 construct: not shown: phage gene III protein of the Ph.D.-12 library phage (New England Biolabs)
T12 peptide: NPLDFYAPSILP

[14] = target: T13, pepD1-L13 peptide phage clone; test: as above
T13 construct: not shown: phage gene III protein of the Ph.D.-12 library phage (New England Biolabs)
T13 peptide: GNTLLDTLVPLI

[15] = target: T14, pepD1-L6 peptide phage clone; test: as above
T14 construct: not shown: phage gene III protein of the Ph.D.-12 library phage (New England Biolabs)
T14 peptide: SSIIDILLPPIY

amyloid β peptide 1-42 = target: T15, amyloid β peptide 1-42 (UniProt P05067 672-713); test: precipitation of Aβ oligomer and fibers with streptavidin-magnet beads, Western blot with anti-Aβ antibodies
T15 construct: domain: Aβ1-42; In the precipitation experiment it stood as oligomer and fibers formed 1.5 hours after dissolution at 40 µM; also called Aβ1-42; Aβ oligomer
T15 sequence (P05067 672-713 limits assumed): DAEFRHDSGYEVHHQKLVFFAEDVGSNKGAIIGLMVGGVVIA
Description: Aβ1-42 was dissolved at a concentration of 40 μM in 20 mM phosphate buffer, pH 7.0. […] After reaction, an aliquot thereof was sampled as a sample before immunoprecipitation (“Before precipitation”), and the remaining sample was reacted with M-280 streptavidin-magnet beads (Dynal Biotech, Oslo, Norway) adjusted to 20 μg/μl on ice for 1 hour at a ratio of 1:1 by liquid volume (final concentration: Aβ [10 μM]/synthesized peptide [10 μM]/beads [10 μg/μl]). After reaction, the beads were precipitated using a magnet to obtain “Supernatant”. To the precipitated beads, PBS was added in a liquid volume equal to the collected supernatant to obtain “Pellet”. Each obtained sample was electrophoresed and subjected to Western blot analysis using anti-Aβ antibodies.
Aβ1-42 was dissolved at a concentration of 40 μM in 20 mM phosphate buffer, pH 7.0.

Measured: binding result

B1: B7 scFv (clone B7 described in WO 2005/105998) (scFv, V domains shown)
VH: QVQLVQSGGGLVQPGGSQRLSCAASGFGFSNYAVSWVRQAPGTGLEWVAGVNGGGQNTFYADSVKGRFTISRDNSKKTVYLQMNSLRVEDTAIYYCAKDGRFRNRRPDGFDTWGQGTLVTVSS
VL: SSELTQDPNVSVALGQTVRITCQGDTLRNNFPTWYQQKPGQAPVLVFYGKDNRPSGIPDRFSGSRSGTTASLVITGAQAQDEADYYCNSRDSGGHHLVFGGGTKLTVLG
notes: Human single-chain antibody
binds: [1]

B2: B6 scFv (clone B6 described in WO 2005/105998) (scFv, V domains shown)
VH: QVQLVQSGGGVVQPGGSLRLSCAASGFTFSRYAMSWVRQAPGKGLEWVSAMSGSGDTTYYADSVKGRFTISRDNSKKTVYLQMNRLRVEDTAIYYCAKDGRFRNRRSDGFDTWGQGTLVTVSS
VL: SSELTQDPAVSVALGQTVRITCQGDSLRSYYASWYQQKPGQAPVLVIYGKDNRPSGIPDRFSGSSSGNAASLTITGAQAEDEADYYCNSRDTSGNHLVFGGGTKVTVLG
notes: Human single-chain antibody
binds: [2] | [3]

B3: D1 scFv (clone D1 described in WO 2005/105998) (scFv, V domains shown)
VH: QVTLKESGGDLVKPGGSLRLSCAASGFTFRKYYMAWIRQAPGKGPEWLSTISNSGDIIDYADSVRGRFSISRDNAQKSLYLQMTSLRPDDSAIYYCAREYFFSFDVWGRGTLVTVSS
VL: B2 VL with V18I, D51N, N52K, F61I, S65R, A69T, T92S, K104Q, V105L
notes: Human single-chain antibody
not listed: [1] | [2] | [3] | amyloid β peptide 1-42
binds: all other assays above

GSGGGSCGYWRSEWGLCG (also called unrelated peptide) [unrelated control peptide (GSGGGSCGYWRSEWGLCG)]
no binding: amyloid β peptide 1-42
